Source: patent US20120178694A1 (University of Pennsylvania, published 2012)
Bridge positions count the residues as written; N and C are the ends. Square brackets hold non-standard residues; d marks the D form. Trp(1-Me) = Cn1cc(C[C@H](N)C(=O)O)c2ccccc21; NMeW = CN[C@@H](Cc1c[nH]c2ccccc12)C(=O)O; NMeH = CN[C@@H](Cc1c[nH]cn1)C(=O)O; NMeR = CN[C@@H](CCCNC(=N)N)C(=O)O; NMeQ = CN[C@@H](CCC(N)=O)C(=O)O; NMeD = CN[C@@H](CC(=O)O)C(=O)O; NMeC = CN[C@@H](CS)C(=O)O; Sar = CNCC(=O)O

What was measured:
[1] = molecular target: T1, C3 purified from fresh human plasma (human, UniProt P01024 23-1663); assay: ITC; peptide titrated into C3, PBS, 25 C
T1 construct: mature; Native plasma C3 is a two-chain (beta/alpha) protein made from one precursor; In the complement ELISA the C3 is the C3 of human serum; also called complement C3; C3 protein
Description: (§1) ITC analysis. All ITC experiments were performed with the Microcal VP-ITC calorimeter (Microcal Inc., Northampton, Mass.), using protein concentrations of 1.8-5 μM C3 in the cell and peptide concentrations of 40-100 μM of individual compstatin analogs in the syringe. All titrations were performed in PBS (10 mM phosphate buffer with 150 mM NaCl, pH 7.4) at 25° C. using multiple peptide injections of 2-7 μL each. The raw isotherms were corrected for the heats of dilution by subtracting the isotherms representing peptide injections into the buffer. The resulting isotherms were fitted to a single site of sites models using Origin 7.0 software, and the model that produced the lowest χ² value was deemed to be appropriate for the respective data set. The Gibbs free energy was calculated as ΔG=ΔH−TΔS. Each experiment was repeated at least twice.
(§2) Characterization of binding thermodynamics.

biotinylated C3b [2] = molecular target: biotinylated C3b (UniProt P01024); assay: SPR on immobilised C3b; ratio relative to peptide 14
[3] = molecular target: T1, C3 purified from fresh human plasma; assay: ITC with C3; relative to peptide 14
Description: as §1, §2

[4] = molecular target: T1, C3 purified from fresh human plasma; assay: cell-based or functional assay
biotinylated C3b [5] = molecular target: biotinylated C3b (UniProt P01024); assay: SPR, Biacore 3000; biotinylated C3b on streptavidin chip, peptide injected; 1:1 fit
[6] = molecular target: T1, C3 purified from fresh human plasma; assay: cell-based or functional assay; remark: listed apart in the source
[7] = molecular target: T1, C3 purified from fresh human plasma; assay: cell-based or functional assay; remark: listed apart in the source
[8] = molecular target: T1, C3 purified from fresh human plasma; assay: cell-based or functional assay; remark: listed apart in the source

T1 sequence (P01024 23-1663): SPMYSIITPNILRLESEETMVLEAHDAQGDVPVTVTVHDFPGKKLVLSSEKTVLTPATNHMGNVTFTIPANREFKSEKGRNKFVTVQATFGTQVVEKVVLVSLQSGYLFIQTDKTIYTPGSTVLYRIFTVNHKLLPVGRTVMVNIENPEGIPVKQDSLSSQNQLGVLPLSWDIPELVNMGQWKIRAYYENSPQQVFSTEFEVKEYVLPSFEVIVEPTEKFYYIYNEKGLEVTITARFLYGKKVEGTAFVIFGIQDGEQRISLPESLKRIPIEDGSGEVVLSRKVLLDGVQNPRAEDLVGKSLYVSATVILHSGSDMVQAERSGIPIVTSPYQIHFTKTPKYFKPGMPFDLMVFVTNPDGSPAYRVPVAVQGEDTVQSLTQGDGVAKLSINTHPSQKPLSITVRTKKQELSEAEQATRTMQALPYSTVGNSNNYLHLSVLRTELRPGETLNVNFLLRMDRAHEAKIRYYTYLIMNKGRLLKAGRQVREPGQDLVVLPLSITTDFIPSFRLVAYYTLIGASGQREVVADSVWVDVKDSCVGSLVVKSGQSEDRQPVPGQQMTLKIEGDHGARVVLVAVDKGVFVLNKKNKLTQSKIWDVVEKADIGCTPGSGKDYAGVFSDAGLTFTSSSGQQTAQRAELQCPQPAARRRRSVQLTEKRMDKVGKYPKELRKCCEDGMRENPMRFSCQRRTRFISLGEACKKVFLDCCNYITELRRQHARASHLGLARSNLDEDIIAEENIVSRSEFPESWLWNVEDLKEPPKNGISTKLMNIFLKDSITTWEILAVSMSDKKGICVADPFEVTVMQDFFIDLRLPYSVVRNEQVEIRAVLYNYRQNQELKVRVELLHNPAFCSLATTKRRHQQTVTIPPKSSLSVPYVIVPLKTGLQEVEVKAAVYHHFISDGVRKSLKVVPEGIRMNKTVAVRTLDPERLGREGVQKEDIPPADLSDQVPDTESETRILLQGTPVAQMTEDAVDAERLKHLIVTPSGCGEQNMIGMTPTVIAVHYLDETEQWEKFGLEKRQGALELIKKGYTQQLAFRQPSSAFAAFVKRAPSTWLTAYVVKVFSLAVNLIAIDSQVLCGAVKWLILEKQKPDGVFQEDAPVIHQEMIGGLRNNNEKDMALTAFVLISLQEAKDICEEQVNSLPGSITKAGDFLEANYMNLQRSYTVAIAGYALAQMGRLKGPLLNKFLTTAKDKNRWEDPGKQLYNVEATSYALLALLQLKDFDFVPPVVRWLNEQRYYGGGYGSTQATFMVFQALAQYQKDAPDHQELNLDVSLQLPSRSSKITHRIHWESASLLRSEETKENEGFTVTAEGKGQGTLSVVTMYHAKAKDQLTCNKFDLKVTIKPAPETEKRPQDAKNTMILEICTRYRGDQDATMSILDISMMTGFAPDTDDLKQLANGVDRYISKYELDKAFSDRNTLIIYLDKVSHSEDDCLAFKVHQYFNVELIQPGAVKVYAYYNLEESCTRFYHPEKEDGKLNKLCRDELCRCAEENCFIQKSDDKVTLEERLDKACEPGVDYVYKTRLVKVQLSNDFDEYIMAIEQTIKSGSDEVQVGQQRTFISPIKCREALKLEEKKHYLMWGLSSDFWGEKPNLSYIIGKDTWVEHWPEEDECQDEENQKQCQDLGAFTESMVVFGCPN

B1: peptide 16 (peptide)
peptide: Ac-ICV[Trp(1-Me)]QDWGAHRCI-NH2
modifications: disulfide 2-12
SMILES: CC[C@H](C)[C@H](NC(=O)[C@@H]1CSSC[C@H](NC(=O)[C@@H](NC(C)=O)[C@@H](C)CC)C(=O)N[C@@H](C(C)C)C(=O)N[C@@H](Cc2cn(C)c3ccccc23)C(=O)N[C@@H](CCC(N)=O)C(=O)N[C@@H](CC(=O)O)C(=O)N[C@@H](Cc2c[nH]c3ccccc23)C(=O)NCC(=O)N[C@@H](C)C(=O)N[C@@H](Cc2c[nH]cn2)C(=O)N[C@@H](CCCNC(=N)N)C(=O)N1)C(N)=O
notes: Peptide 14 scaffold with Gly^8, Ile^13; also called 16 (6)
B1 was tested, and the “-TΔS” value [1] was 5.7 kcal/mol, the ΔG [1] was -10.9 kcal/mol and the ΔH [1] was -16.6 kcal/mol. The rKD SPR (biotinylated C3b [2]) was 1.1 fold, the rka (biotinylated C3b [2]) was 1 fold and the rkd (biotinylated C3b [2]) was 1 fold. The “-TΔΔS” value [3] was -1.3 kcal/mol, the “rKD ITC” value [3] was 1.2 fold and the ΔΔG [3] was -0.2 kcal/mol. It also gave a ΔΔH [3] of 1 kcal/mol.

B2: Peptide 17-ABM (peptide)
peptide: ICVWQDWGAHRCIK
modifications: not fully specified; N-terminal acetyl; 1-methyl-Trp at 4; N-methyl-Gly (Sar) at 8; disulfide Cys2-Cys12 (cyclic); two mini-PEG-3 spacers between Ile13 and a C-terminal Lys-NH2; albumin-binding small molecule (ABM) on the Lys side chain
B2 was tested, and the “IC50 (nM, CP), inhibition of classical pathway complement activation, ELISA, human serum” value [4] was 137 nM, the “IC50 fold change relative to peptide 17” value [4] was 0.67 fold and the Kd (biotinylated C3b [5]) was 0.0047 µM. The koff (biotinylated C3b [5]) was 0.0056 s⁻¹ and the kon (biotinylated C3b [5]) was 1.2e+06 M⁻¹ s⁻¹.

B3: Peptide 17-ABP (peptide)
peptide: ICVWQDWGAHRCIK
chain: RLIEDICLPRWGCLWEDD
modifications: propiolic acid on the N-terminus, joined by triazole to the azido-Lys of the peptide 17 chain; N-terminal acetyl; 1-methyl-Trp at 4; N-methyl-Gly (Sar) at 8; disulfide Cys2-Cys12 (cyclic); two mini-PEG-3 spacers between Ile13 and a C-terminal Lys-NH2; 2-azidoacetyl on the Lys side chain, joined by azide-alkyne cycloaddition (triazole) to the ABP
In the case of B3, the “IC50 (nM, CP), inhibition of classical pathway complement activation, ELISA, human serum” value [4] is reported as 242 nM, the “IC50 fold change relative to peptide 17” value [4] is reported as 0.38 fold and the Kd (biotinylated C3b [5]) is reported as 0.032 µM. For the same binder, the koff (biotinylated C3b [5]) was 0.0036 s⁻¹ and the kon (biotinylated C3b [5]) was 100000 M⁻¹ s⁻¹.

B4: Ac-I[(NMe)CVYQDWGAHRC]T-NH2 (peptide)
peptide: Ac-I[NMeC]VYQDWGAHRCT-NH2
modifications: disulfide 2-12
SMILES: CC[C@H](C)[C@H](NC(C)=O)C(=O)N(C)[C@H]1CSSC[C@@H](C(=O)N[C@H](C(N)=O)[C@@H](C)O)NC(=O)[C@H](CCCNC(=N)N)NC(=O)[C@H](Cc2c[nH]cn2)NC(=O)[C@H](C)NC(=O)CNC(=O)[C@H](Cc2c[nH]c3ccccc23)NC(=O)[C@H](CC(=O)O)NC(=O)[C@H](CCC(N)=O)NC(=O)[C@H](Cc2ccc(O)cc2)NC(=O)[C@H](C(C)C)NC1=O
For B4, the “IC50 (CP), inhibition of classical pathway complement activation, ELISA” value (“IC50 (CP), inhibition” below) [6] was 7.5 µM and the “IC50-fold change relative to peptide 1” value [6] was 0.3 fold.

B5: Ac-I[CVYQD(NMe)WGAHRC]T-NH2 (peptide)
peptide: Ac-ICVYQD[NMeW]GAHRCT-NH2
modifications: disulfide 2-12
SMILES: CC[C@H](C)[C@H](NC(C)=O)C(=O)N[C@H]1CSSC[C@@H](C(=O)N[C@H](C(N)=O)[C@@H](C)O)NC(=O)[C@H](CCCNC(=N)N)NC(=O)[C@H](Cc2c[nH]cn2)NC(=O)[C@H](C)NC(=O)CNC(=O)[C@H](Cc2c[nH]c3ccccc23)N(C)C(=O)[C@H](CC(=O)O)NC(=O)[C@H](CCC(N)=O)NC(=O)[C@H](Cc2ccc(O)cc2)NC(=O)[C@H](C(C)C)NC1=O
In the case of B5, the “IC50 (CP), inhibition” value [6] is reported as 25 µM and the “IC50-fold change relative to peptide 1” value [6] is reported as 0.1 fold.

B6: Ac-I[CVYQDW(NMe)GAHRC]T-NH2 (peptide)
peptide: Ac-ICVYQDW[Sar]AHRCT-NH2
modifications: disulfide 2-12
SMILES: CC[C@H](C)[C@H](NC(C)=O)C(=O)N[C@H]1CSSC[C@@H](C(=O)N[C@H](C(N)=O)[C@@H](C)O)NC(=O)[C@H](CCCNC(=N)N)NC(=O)[C@H](Cc2c[nH]cn2)NC(=O)[C@H](C)NC(=O)CN(C)C(=O)[C@H](Cc2c[nH]c3ccccc23)NC(=O)[C@H](CC(=O)O)NC(=O)[C@H](CCC(N)=O)NC(=O)[C@H](Cc2ccc(O)cc2)NC(=O)[C@H](C(C)C)NC1=O
For B6, the “IC50 (CP), inhibition” value [6] was 1.43 µM and the “IC50-fold change relative to peptide 1” value [6] was 1.7 fold.

B7: Ac-I[CVYQDWGA(NMe)HRC]T-NH2 (peptide)
peptide: Ac-ICVYQDWGA[NMeH]RCT-NH2
modifications: disulfide 2-12
SMILES: CC[C@H](C)[C@H](NC(C)=O)C(=O)N[C@H]1CSSC[C@@H](C(=O)N[C@H](C(N)=O)[C@@H](C)O)NC(=O)[C@H](CCCNC(=N)N)NC(=O)[C@H](Cc2c[nH]cn2)N(C)C(=O)[C@H](C)NC(=O)CNC(=O)[C@H](Cc2c[nH]c3ccccc23)NC(=O)[C@H](CC(=O)O)NC(=O)[C@H](CCC(N)=O)NC(=O)[C@H](Cc2ccc(O)cc2)NC(=O)[C@H](C(C)C)NC1=O
B7 was tested, and the “IC50 (CP), inhibition” value [6] was 94 µM and the “IC50-fold change relative to peptide 1” value [6] was 0.03 fold.

B8: Ac-I[CVYQDWGAH(NMe)RC]T-NH2 (peptide)
peptide: Ac-ICVYQDWGAH[NMeR]CT-NH2
modifications: disulfide 2-12
SMILES: CC[C@H](C)[C@H](NC(C)=O)C(=O)N[C@H]1CSSC[C@@H](C(=O)N[C@H](C(N)=O)[C@@H](C)O)NC(=O)[C@H](CCCNC(=N)N)N(C)C(=O)[C@H](Cc2c[nH]cn2)NC(=O)[C@H](C)NC(=O)CNC(=O)[C@H](Cc2c[nH]c3ccccc23)NC(=O)[C@H](CC(=O)O)NC(=O)[C@H](CCC(N)=O)NC(=O)[C@H](Cc2ccc(O)cc2)NC(=O)[C@H](C(C)C)NC1=O
With B8 the “IC50 (CP), inhibition” value [6] was 32 µM and the “IC50-fold change relative to peptide 1” value [6] was 0.08 fold.

B9: Ac-I[CVYQDWGAHR(NMe)C]T-NH2 (peptide)
peptide: Ac-ICVYQDWGAHR[NMeC]T-NH2
modifications: disulfide 2-12
SMILES: CC[C@H](C)[C@H](NC(C)=O)C(=O)N[C@H]1CSSC[C@@H](C(=O)N[C@H](C(N)=O)[C@@H](C)O)N(C)C(=O)[C@H](CCCNC(=N)N)NC(=O)[C@H](Cc2c[nH]cn2)NC(=O)[C@H](C)NC(=O)CNC(=O)[C@H](Cc2c[nH]c3ccccc23)NC(=O)[C@H](CC(=O)O)NC(=O)[C@H](CCC(N)=O)NC(=O)[C@H](Cc2ccc(O)cc2)NC(=O)[C@H](C(C)C)NC1=O
In the case of B9, the “IC50 (CP), inhibition” value [6] is reported as 154 µM and the “IC50-fold change relative to peptide 1” value [6] is reported as 0.02 fold.

B10: peptide 22 (peptide)
peptide: Ac-ICV[Trp(1-Me)]QDW[Sar]AHRCH-NH2
modifications: disulfide 2-12
SMILES: CC[C@H](C)[C@H](NC(C)=O)C(=O)N[C@H]1CSSC[C@@H](C(=O)N[C@@H](Cc2c[nH]cn2)C(N)=O)NC(=O)[C@H](CCCNC(=N)N)NC(=O)[C@H](Cc2c[nH]cn2)NC(=O)[C@H](C)NC(=O)CN(C)C(=O)[C@H](Cc2c[nH]c3ccccc23)NC(=O)[C@H](CC(=O)O)NC(=O)[C@H](CCC(N)=O)NC(=O)[C@H](Cc2cn(C)c3ccccc23)NC(=O)[C@H](C(C)C)NC1=O
In the case of B10, the “IC50, inhibition of classical pathway complement activation, ELISA” value [7] is reported as 0.16 µM.

B11: peptide 23 (peptide)
peptide: Ac-ICV[Trp(1-Me)]QDW[Sar]AHRCF-NH2
modifications: disulfide 2-12
SMILES: CC[C@H](C)[C@H](NC(C)=O)C(=O)N[C@H]1CSSC[C@@H](C(=O)N[C@@H](Cc2ccccc2)C(N)=O)NC(=O)[C@H](CCCNC(=N)N)NC(=O)[C@H](Cc2c[nH]cn2)NC(=O)[C@H](C)NC(=O)CN(C)C(=O)[C@H](Cc2c[nH]c3ccccc23)NC(=O)[C@H](CC(=O)O)NC(=O)[C@H](CCC(N)=O)NC(=O)[C@H](Cc2cn(C)c3ccccc23)NC(=O)[C@H](C(C)C)NC1=O
B11 was tested, and the “rP, relative potency compared to peptide 14” value [8] was 0.8 fold and the “IC50, inhibition of classical pathway complement activation, ELISA” value [7] was 0.257 µM.

B12: Ac-I[CVY(NMe)QDWGAHRC]T-NH2 (peptide)
peptide: Ac-ICVY[NMeQ]DWGAHRCT-NH2
modifications: disulfide 2-12
SMILES: CC[C@H](C)[C@H](NC(C)=O)C(=O)N[C@H]1CSSC[C@@H](C(=O)N[C@H](C(N)=O)[C@@H](C)O)NC(=O)[C@H](CCCNC(=N)N)NC(=O)[C@H](Cc2c[nH]cn2)NC(=O)[C@H](C)NC(=O)CNC(=O)[C@H](Cc2c[nH]c3ccccc23)NC(=O)[C@H](CC(=O)O)NC(=O)[C@H](CCC(N)=O)N(C)C(=O)[C@H](Cc2ccc(O)cc2)NC(=O)[C@H](C(C)C)NC1=O
In the case of B12, the “IC50 (CP), inhibition” value [6] is reported as 33 µM and the “IC50-fold change relative to peptide 1” value [6] is reported as 0.07 fold.

B13: Ac-I[CVYQ(NMe)DWGAHRC]T-NH2 (peptide)
peptide: Ac-ICVYQ[NMeD]WGAHRCT-NH2
modifications: disulfide 2-12
SMILES: CC[C@H](C)[C@H](NC(C)=O)C(=O)N[C@H]1CSSC[C@@H](C(=O)N[C@H](C(N)=O)[C@@H](C)O)NC(=O)[C@H](CCCNC(=N)N)NC(=O)[C@H](Cc2c[nH]cn2)NC(=O)[C@H](C)NC(=O)CNC(=O)[C@H](Cc2c[nH]c3ccccc23)NC(=O)[C@H](CC(=O)O)N(C)C(=O)[C@H](CCC(N)=O)NC(=O)[C@H](Cc2ccc(O)cc2)NC(=O)[C@H](C(C)C)NC1=O
For B13, the “IC50 (CP), inhibition” value [6] was 44 µM and the “IC50-fold change relative to peptide 1” value [6] was 0.06 fold.
